Measurements taken from patent US20230159655A1 (AKESO BIOPHARMA, published 2023).

Assays:
[1] = biological target: T1, human NT5E-Biotin (NT5E, GenbankID: NP_002517.1, position: 1-552) (human, UniProt P21589 27-552, biotin (site not stated)); test: ELISA on SA-captured NT5E-Biotin; antibody 0.333 ug/mL diluted 1:729; replicate 1
T1 construct: range 1-552; Biotinylated antigen captured on streptavidin-coated plates; also called HNT5E-Biotin; human NTSE-Biotin
T1 sequence (looked up): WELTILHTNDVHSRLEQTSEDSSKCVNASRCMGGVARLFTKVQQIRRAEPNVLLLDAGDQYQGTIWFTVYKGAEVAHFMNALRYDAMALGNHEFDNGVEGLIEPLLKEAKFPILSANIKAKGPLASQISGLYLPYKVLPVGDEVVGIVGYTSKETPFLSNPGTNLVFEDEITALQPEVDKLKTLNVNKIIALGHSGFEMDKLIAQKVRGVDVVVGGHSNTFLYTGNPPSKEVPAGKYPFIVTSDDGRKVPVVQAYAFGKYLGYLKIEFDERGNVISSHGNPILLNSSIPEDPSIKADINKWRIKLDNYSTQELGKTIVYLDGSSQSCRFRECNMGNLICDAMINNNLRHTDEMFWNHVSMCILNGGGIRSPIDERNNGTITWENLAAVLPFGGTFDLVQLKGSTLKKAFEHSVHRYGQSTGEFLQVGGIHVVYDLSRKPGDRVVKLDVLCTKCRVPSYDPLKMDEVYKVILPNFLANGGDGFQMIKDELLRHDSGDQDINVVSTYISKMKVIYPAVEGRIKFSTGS
Description: (§1) Experimental steps: a microplate was coated with streptavidin at 2 μg/mL, and then the microplate was incubated at 4° C. for 12 hours. The antigen-coated microplate was rinsed for once with PBST after incubation, and then blocked with a PBST solution containing 1% BSA as a microplate blocking solution for 2 hours. After blocking, the microplate was washed 3 times with PBST. […] The antibody serially diluted with the PBST solution was added to the wells of the microplate. The microplate containing the test antibodies was incubated at 37° C. for 30 minutes, and then washed 3 times with PBST. After the plate was washed, the secondary antibody working solution of HRP-labeled goat anti-human IgG (H+L) (Jackson, Cat. No. 109-035-088) diluted in a ratio of 1:5000 or HRP-labeled goat anti-mouse IgG (H+L) (Jackson, Cat. No. 115-035-062) diluted in a ratio of 1:5000 was added, and then the plate was incubated at 37° C. for 30 minutes. After incubation, the plate was washed 4 times with PBST, TMB (Neogen, 308177) was added in the dark for color development for 5 min, and then a stop solution was added to terminate chromogenic reaction. The microplate was put into a microplate reader immediately, and the OD value of each well in the microplate was read at the light wavelength of 450 nm. The data were analyzed by SoftMax Pro 6.2.1.

[2] = biological target: T1, human NT5E-Biotin (NT5E, GenbankID: …); test: ELISA on SA-captured NT5E-Biotin; antibody 0.333 ug/mL diluted 1:27; replicate 2
Description: as §1

[3] = biological target: T1, human NT5E-Biotin (NT5E, GenbankID: …); test: ELISA on SA-captured NT5E-Biotin; antibody 0.333 ug/mL diluted 1:81; replicate 1
Description: as §1

[4] = biological target: T1, human NT5E-Biotin (NT5E, GenbankID: …); test: ELISA on SA-captured NT5E-Biotin; antibody 0.333 ug/mL diluted 1:243; replicate 2
Description: as §1

[5] = biological target: T1, human NT5E-Biotin (NT5E, GenbankID: …); test: ELISA on SA-captured NT5E-Biotin; antibody 0.333 ug/mL diluted 1:3; replicate 1
Description: as §1

[6] = biological target: T1, human NT5E-Biotin (NT5E, GenbankID: …); test: ELISA on SA-captured NT5E-Biotin; antibody 0.333 ug/mL; replicate 2
Description: as §1

[7] = biological target: T1, human NT5E-Biotin (NT5E, GenbankID: …); test: ELISA on SA-captured NT5E-Biotin; antibody 0.333 ug/mL diluted 1:243; replicate 1
Description: as §1

[8] = biological target: T1, human NT5E-Biotin (NT5E, GenbankID: …); test: ELISA on SA-captured NT5E-Biotin; antibody 0 (blank); replicate 2
Description: as §1

[9] = biological target: T1, human NT5E-Biotin (NT5E, GenbankID: …); test: ELISA on SA-captured NT5E-Biotin; antibody 0.333 ug/mL diluted 1:9; replicate 1
Description: as §1

[10] = biological target: T1, human NT5E-Biotin (NT5E, GenbankID: …); test: ELISA on SA-captured NT5E-Biotin; antibody 0.333 ug/mL; replicate 1
Description: as §1

[11] = biological target: T1, human NT5E-Biotin (NT5E, GenbankID: …); test: ELISA on SA-captured NT5E-Biotin; antibody 0 (blank); replicate 1
Description: as §1

[12] = biological target: T1, human NT5E-Biotin (NT5E, GenbankID: …); test: ELISA on SA-captured NT5E-Biotin; antibody 0.333 ug/mL diluted 1:3; replicate 2
Description: as §1

[13] = biological target: T1, human NT5E-Biotin (NT5E, GenbankID: …); test: ELISA on SA-captured NT5E-Biotin; antibody 0.333 ug/mL diluted 1:729; replicate 2
Description: as §1

[14] = biological target: T1, human NT5E-Biotin (NT5E, GenbankID: …); test: ELISA on SA-captured NT5E-Biotin; antibody 0.333 ug/mL diluted 1:81; replicate 2
Description: as §1

B1: murine anti-CD73 monoclonal antibody 19F3 (antibody, V domains shown)
VH: EVQLQQSGPELVKPGASMRMSCKASGYSFTGYTMNWVKQSHGKNLEWIGLINPYNAGTSYNQKFKGKATLTVDKSSSTAYMELLSLTSEDSAVYYCARSEYRYGGDYFDYWGQGTTLTVSS
VL: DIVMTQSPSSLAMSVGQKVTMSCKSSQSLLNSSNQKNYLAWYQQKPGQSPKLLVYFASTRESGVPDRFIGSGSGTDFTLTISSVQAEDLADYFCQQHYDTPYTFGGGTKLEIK
notes: Mouse hybridoma antibody purified on protein A; also called murine antibody 19F3; antibody secreted by hybridoma cell line LT014 (CD73-19F3)
- OD 450 nm [1]: 0.446 OD450
- OD 450 nm [2]: 2.36 OD450
- OD 450 nm [3]: 1.69 OD450
- OD 450 nm [4]: 1 OD450
- OD 450 nm [5]: 2.74 OD450
- OD 450 nm [6]: 2.74 OD450
- OD 450 nm [7]: 1 OD450
- OD 450 nm [8]: 0.062 OD450
- OD 450 nm [9]: 2.57 OD450
- OD 450 nm [10]: 2.71 OD450
- OD 450 nm [11]: 0.06 OD450
- OD 450 nm [12]: 2.76 OD450
- OD 450 nm [13]: 0.47 OD450
- OD 450 nm [14]: 1.77 OD450
